We go through three molecules from patent publication US20120058906A1 (published 2012).

For assay [1], the target named is T1, rHuman CD44/Fc Chimera, CF (R&D Systems Cat#3660-CD) (human, UniProt P16070 21-220).
T1 construct: Bought Fc chimera; not shown: Fc of the bought chimera
Nature of the assay: ECL (MSD multi-spot), antigen on plate, Fab 0.4 nM.

Assay [2] concerns the target T2, rHuman P-Cadherin/Fc Chimera, CF (R&D Systems Cat#861-PC) (human, UniProt P22223 108-654).
T2 construct: Bought Fc chimera; also called CDH3; not shown: Fc of the bought chimera
Nature of the assay: ECL (MSD multi-spot), antigen on plate, Fab 0.4 nM.

Assay [3] has as its target T3, rHuman IGF-1 sR (insulin-like growth factor-1 soluble receptor), CF (R&D Systems Cat#391-GR) (human, UniProt P08069 31-932).
T3 construct: Bought soluble receptor; also called IGF-R1
Nature of the assay: ECL (MSD multi-spot), antigen on plate, Fab 0.4 nM.

The target of assay [4] is T4, rHuman Notch-1/Fc Chimera, CF (R&D Systems Cat#3647-TK) (human, UniProt P46531 19-526).
T4 construct: Bought Fc chimera; not shown: Fc of the bought chimera
Nature of the assay: ECL (MSD multi-spot), antigen on plate, Fab 0.4 nM.

For assay [5], the target named is T5, Recombinant Human DLL4 (R&D Systems Cat#1506-D4/CF) (human, UniProt Q9NR61 27-524).
T5 construct: Bought recombinant protein; also called delta-like protein 4
Nature of the assay: ECL (MSD multi-spot), antigen on plate, Fab 0.4 nM.

Assay [6] deals with T6, rHuman HGF R/c-MET/Fc Chimera, CF (R&D Systems Cat#358-MT/CF) (human, UniProt P08581 25-932).
T6 construct: Bought Fc chimera; also called HGF R/Fc; not shown: Fc of the bought chimera
The experiment in a line: ECL (MSD multi-spot), antigen on plate, Fab 0.4 nM.

Assay [7] addresses T7, rHuman EGF R/Fc Chimera, CF (R&D Systems Cat#344-ER) (human, UniProt P00533 25-645).
T7 construct: Bought Fc chimera; also called ErbB-1; not shown: Fc of the bought chimera
Nature of the assay: ECL (MSD multi-spot), antigen on plate, Fab 0.4 nM.

Assay [8] has as its target T8, rHuman Erythropoietin R/Fc Chimera, CF (R&D Systems Cat#963-ER) (human, UniProt P19235 25-250).
T8 construct: Bought Fc chimera; also called EPO R/Fc; Epo R; not shown: Fc of the bought chimera
T8 sequence: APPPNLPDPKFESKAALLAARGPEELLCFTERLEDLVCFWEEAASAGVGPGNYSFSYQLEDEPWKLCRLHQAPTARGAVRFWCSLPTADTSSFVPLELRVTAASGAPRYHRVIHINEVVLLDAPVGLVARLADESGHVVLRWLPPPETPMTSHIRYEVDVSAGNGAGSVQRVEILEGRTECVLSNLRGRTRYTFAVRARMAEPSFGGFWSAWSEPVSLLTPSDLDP
The experiment in a line: ECL (MSD multi-spot), antigen on plate, Fab 0.4 nM.

The target of assay [9] is T9, Recombinant Human DLL4 (R&D Systems Cat#1506-D4/CF) (human, UniProt Q9NR61 27-524).
T9 construct: Bought reagent; also called delta-like protein 4
The experiment in a line: ECL (MSD multi-spot), antigen spotted on plate; Fab 44.1 nM; blank spot 200.

Assay [10] has as its target T10, rHuman CD44/Fc Chimera, CF (R&D Systems Cat#3660-CD) (human, UniProt P16070 21-220).
T10 construct: Bought reagent; Fc part of the bought chimera not given
The description is as above.

Assay [11] deals with T11, rHuman IGF-1 sR (IGF-1 sR), CF (R&D Systems Cat#391-GR) (human, UniProt P08069 31-932).
T11 construct: Bought soluble receptor; also called insulin-like growth factor-1 soluble receptor; IGF-R1
The assay is described as above.

The target of assay [12] is T12, rHuman EGF R/Fc Chimera, CF (R&D Systems Cat#344-ER) (human, UniProt P00533 25-645).
T12 construct: also called epidermal growth factor receptor; Fc part of the bought chimera not given
The experiment in a line: MSD ECL multi-spot plate; Fab 130 nM; blank spot 1153.

Assay [13] has as its target T13, Recombinant Human DLL4 (R&D Systems Cat#1506-D4/CF) (human, UniProt Q9NR61 27-524).
T13 construct: also called delta-like protein 4
The assay is described as above.

The target in assay [14] is T14, rHuman ErbB2/Fc Chimera, CF (R&D Systems Cat#1129-ER) (human, UniProt P04626 23-652).
T14 construct: also called HER2/neu; human epidermal growth factor 2 receptor; Fc part of the bought chimera not given
Described as above.

The target of assay [15] is T15, rHuman CD44/Fc Chimera, CF (R&D Systems Cat#3660-CD) (human, UniProt P16070 21-220).
T15 construct: Fc part of the bought chimera not given
The description is as above.

The target in assay [16] is T16, rHuman Erythropoietin R/Fc Chimera, CF (R&D Systems Cat#963-ER) (human, UniProt P19235 25-250).
T16 construct: also called EPO R/Fc; Epo R; Fc part of the bought chimera not given
T16 sequence: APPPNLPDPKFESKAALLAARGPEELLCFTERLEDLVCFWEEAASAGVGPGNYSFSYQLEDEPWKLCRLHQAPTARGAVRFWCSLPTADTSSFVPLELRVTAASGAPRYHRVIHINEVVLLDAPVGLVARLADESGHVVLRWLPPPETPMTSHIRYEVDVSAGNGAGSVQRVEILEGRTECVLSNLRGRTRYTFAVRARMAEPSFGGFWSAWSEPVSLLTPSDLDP
The assay is described as above.

The target in assay [17] is T17, rHuman IGF-1 sR, (IGF-1 sR), CF (R&D Systems Cat#391-GR) (human, UniProt P08069 31-932).
T17 construct: also called insulin-like growth factor-1 soluble receptor; IGF-R1
Described as above.

Assay [18] has as its target T18, rHuman Notch-1/Fc Chimera, CF (R&D Systems Cat#3647-TK) (human, UniProt P46531 19-526).
T18 construct: Fc part of the bought chimera not given
Described as above.

Assay [19] concerns the target T19, rHuman HGF R/c-MET/Fc Chimera, CF (R&D Systems Cat#358-MT/CF) (human, UniProt P08581 25-932).
T19 construct: also called HGF R/Fc; hepatocyte growth factor receptor; Fc part of the bought chimera not given
The assay is described as above.
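Also: blank spot per well as comparator with Hit at signal to blank ratio of 4 or more.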

B1: Fab VH1-46_IGHD6-6*01_IGHJ1*01_S102A_S103P_S104F & L6_IGKJ1*01_S31K (Fab, V domains shown)
VH: QVQLVQSGAEVKKPGASVKVSCKASGYTFTSYYMHWVRQAPGQGLEWMGIINPSGGSTSYAQKFQGRVTMTRDTSTSTVYMELSSLRSEDTAVYYCAREEYAPFSAEYFQHWGQGTLVTVSS
VL: EIVLTQSPATLSLSPGERATLSCRASQSVSKYLAWYQQKPGQAPRLLIYDASNRATGIPARFSGSGSGTDFTLTISSLEPEDFAVYYCQQRSNWPPWTFGQGTKVEIKR
notes: Fab
For the molecule B1, the ECL signal in assay [1] amounted to 190 ECL signal; in [2] it was 151 ECL signal; in [3], 65 ECL signal; in assay [4], 197 ECL signal; in assay [5] it was 1260 ECL signal; in [6] it was 119 ECL signal. Moreover, the figures for the ECL signal in [7] and in assay [8] were 175 ECL signal and 217 ECL signal, respectively.

B2: Fab VH1-46_IGHD3-10*01_IGHJ4*01 & B3_IGKJ1*01 (Fab, V domains shown)
VH: QVQLVQSGAEVKKPGASVKVSCKASGYTFTSYYMHWVRQAPGQGLEWMGIINPSGGSTSYAQKFQGRVTMTRDTSTSTVYMELSSLRSEDTAVYYCAREYYYGSGSYYNDYFDYWGQGTLVTVSS
VL: not shown
notes: also called IGHV1-46*01
For the molecule B2, the ECL signal in [9] was determined as 388; in assay [10], 302; in assay [11], 309.

B3: Fab VH1-8_IGHD2-2*01_IGHJ6*01 & L12_IGKJ1*01 (Fab, V domains shown)
VH: QVQLVQSGAEVKKPGASVKVSCKASGYTFTSYDINWVRQATGQGLEWMGWMNPNSGNTGYAQKFQGRVTMTRNTSISTAYMELSSLRSEDTAVYYCARGGYCSSTSCYADYYYYYGMDVWGQGTTVTVSS
VL: not shown
B3: the ECL signal in assay [12] was determined as 1750 ECL signal; in assay [13] it was 7740 ECL signal; in [14], 1530 ECL signal; in [15], 1750 ECL signal; in [16], 2150 ECL signal; in assay [17], 1970 ECL signal. Moreover, the ECL signal in assay [18] came to 1760 ECL signal; in [19] it was 1880 ECL signal.
